The labels stand for the following.
B1: NF2 (merlin) isoform 7, human, full length (507 aa, lacks exons 2-3 = isoform-1 residues 39-121; exon-16 C-terminus), P35240-4 (parent)
chain: MAGAIASRMSFSSLKRKQPKTFTVRIVTMDAEMEFNCEVKKQILDEKIYCPPEASVLLASYAVQAKYGDYDPSVHKRGFLAQEELLPKRVINLYQMTPEMWEERITAWYAEHRGRARDEAEMEYLKIAQDLEMYGVNYFAIRNKKGTELLLGVDALGLHIYDPENRLTPKISFPWNEIRNISYSDKEFTIKPLDKKIDVFKFNSSKLRVNKLILQLCIGNHDLFMRRRKADSLEVQQMKAQAREEKARKQMERQRLAREKQMREEAERTRDELERRLLQMKEEATMANEALMRSEETADLLAEKAQITEEEAKLLAQKAAEAEQEMQRIKATAIRTEEEKRLMEQKVLEAEVLALKMAEESERRAKEADQLKQDLQEAREAERRAKQKLLEIATKPTYPPMNPIPAPLPPDIPSFNLIGDSLSFDFKDTDMKRLSMEIEKEKVEYMEKSKHLQEQLNELKTEIEALKLKERETALDILHNENSDRGGSSKHNTIKKPQAQGRRPICI

Variants of B1 are the subject of this test. The test is described as follows: reverse yeast two-hybrid deep mutational scan (rY2H-seq): NF2 isoform 7 mutant library as bait mated with wild-type prey strains; selection on medium lacking adenine for non-interacting pairs; NextSeq paired-end sequencing; enrichment vs …. The note with it: yeast diploids after mating (RBait_S3 x RPrey_S3), 30 °C, selection for reporter genes on NB agar, HIGHER = WEAKER BINDING (the opposite of display enrichments): higher = stronger loss of interaction: reverse Y2H selects yeast in which bait and prey do NOT interact (growth without adenine), so a …, hits-only table, scale: rY2H score, numbering: uniprot, sequence starts at 1. Background: In a reporter assay the amount or activity of a reporter protein is the signal.

[1] abbreviates: with EMILIN1 (elastin microfibril interfacer 1), Q9Y6C2, human ABL2 co-expressed as the kinase-dead K35M mutant ….
Where [2] appears, read: with KDM1A (lysine-specific histone demethylase 1A; the table's label AOF2 is a gene synonym of KDM1A), O60341, human ABL2 co-expressed as the kinase-dead K35M mutant ….
[3] abbreviates: with EMILIN1 (elastin microfibril interfacer 1), Q9Y6C2, human tyrosine kinase ABL2 co-expressed as the active kinase ….
[4] abbreviates: with KDM1A (lysine-specific histone demethylase 1A; the table's label AOF2 is a gene synonym of KDM1A), O60341, human tyrosine kinase ABL2 co-expressed as the active kinase ….
[5] abbreviates: with PIK3R3 (phosphatidylinositol 3-kinase regulatory subunit gamma), Q92569, human tyrosine kinase ABL2 co-expressed as the active kinase ….
Setting [6] is: with NF2 C-terminal domain (wild type; homomeric NF2-NF2 interaction), P35240, human ABL2 co-expressed as the kinase-dead K35M mutant …, partner unresolved.

Values joined by “and” are separate entries in the source; they are usually repeats but may differ in a detail not shown here. Equal entries are not always repeated.

Take I418L: the enrichment worked out at 6.81 under setting [1] and 6.54 under setting [2].

Turning to I418W, the enrichment was found to be 16.4 under setting [1] and 19.8 under setting [2].

For the variant D411K, under setting [1], the enrichment amounted to 2.21.

R113C: the enrichment runs as follows: under setting [1], 3.78 and 3.75; under setting [3], 7.86 and 3.66; under setting [2], 4.82 and 6.06; under setting [4], 4.42 and 5.11; under setting [5], 7.41.

On to E272K, for which the enrichment runs as follows: under setting [1], 1.57; under setting [2], 3.01 and 2.96; under setting [4], 1.77; under setting [6], 3.42 and 3.26; under setting [5], 2.55 and 1.61 and 4.74.

As for L342K, the enrichment is 1.65 and 3.1 under setting [1]; 2.14 and 6.11 under setting [3]; 6.76 and 4.54 under setting [2]; 1.63 under setting [4].

Turning to Q373Y, the enrichment reads like this: under setting [1], 2.52; under setting [3], 3.17.

Consider Q373E, for which the enrichment amounted to 3.3 under setting [1], 2.85 under setting [2] and 1.81 under setting [6].

For P163K, the enrichment reads like this: under setting [1], 5.55; under setting [2], 7.04; under setting [4], 5.58.

As for I178K, the enrichment under setting [1] was determined as 6.13 and the enrichment under setting [6] is 2.57.

As for K211I, the enrichment runs as follows: under setting [1], 3.12; under setting [3], 3.16; under setting [2], 5.27; under setting [4], 2.6; under setting [6], 2.67; under setting [5], 2.81 and 3.72.

Regarding I141A, the enrichment was 20.7 under setting [1]; 21.3 and 14.9 under setting [2]; 30.8 under setting [4].

With K88R, the enrichment runs as follows: under setting [1], 1.95; under setting [3], 2.74.

In the case of Y398E, the enrichment runs as follows: under setting [1], 8.39; under setting [3], 15.7; under setting [6], 3.87 and 6.52.

As to Y398F, the enrichment under setting [1] was 1.39 and 2; the enrichment under setting [3] was 1.38 and 1.78; the enrichment under setting [2] came to 1.87; the enrichment under setting [4] is 2.06.

With Q82A, the enrichment amounted to 4.41 under setting [1], 9.08 under setting [2], 4.66 under setting [4] and 2.07 under setting [6].

For T308K, the enrichment reads like this: under setting [1], 2.66 and 1.9; under setting [3], 2.2 and 3.37; under setting [2], 2.96; under setting [4], 2.24; under setting [6], 5.45.

Regarding T308E, the enrichment runs as follows: under setting [1], 2.33; under setting [6], 3.16.

As for T308D, the enrichment is 4.89 under setting [1], 2.02 under setting [3], 2.33 under setting [2] and 2.47 under setting [6].

Consider I334T, for which the enrichment was 1.75 under setting [1]; 1.68 and 2.52 under setting [3]; 2.69 and 1.45 under setting [2].

I334L: the enrichment under setting [1] was 1.59 and 1.85; the enrichment under setting [4] stood at 3.11; the enrichment under setting [5] was 1.39.

For I334E, the enrichment is 2.52 under setting [1]; 4.73 and 1.72 under setting [2]; 2.25 under setting [5].

Regarding H159S, the enrichment reads like this: under setting [1], 21.9; under setting [6], 18.

Take E359K: the enrichment is, setting by setting: under setting [1], 1.99; under setting [3], 1.99; under setting [2], 7.74.

As to M326E, the enrichment runs as follows: under setting [1], 4.89; under setting [3], 3.65; under setting [2], 6.72; under setting [4], 1.86; under setting [6], 1.94.

For K427T, the enrichment under setting [1] was found to be 2.98.

Consider R227K, for which the enrichment under setting [1] is 1.95.

Turning to G419K, the enrichment under setting [1] came to 1.49.

Turning to G419A, the enrichment was 1.71 under setting [1] and 1.44 under setting [4].

With G419V, the enrichment under setting [1] is 2.41.

For the variant L375E, the enrichment under setting [1] stood at 3.04; the enrichment under setting [3] turned out to be 6.55; the enrichment under setting [4] is 2.39; the enrichment under setting [6] was 2.55 and 4.04; the enrichment under setting [5] worked out at 3.17.

As to D299A, the enrichment under setting [1] was 1.54.

Consider P409L, for which the enrichment reads like this: under setting [1], 2.46; under setting [2], 1.48 and 1.82; under setting [4], 3.03; under setting [6], 3.35 and 2.55; under setting [5], 1.63.

Turning to D69A, the enrichment under setting [1] was found to be 2.53.

Regarding R263T, under setting [1], the enrichment came to 1.89.

R263L: under setting [1], the enrichment amounted to 3.17.

On to R263K, for which the enrichment is, setting by setting: under setting [1], 2.14; under setting [2], 1.91.

On to E164L, for which the enrichment turned out to be 2.39 under setting [1], 3.94 under setting [2] and 2.07 under setting [5].

In the case of L256A, the enrichment under setting [1] came out at 5.54 and the enrichment under setting [4] turned out to be 2.38.

As to C217Y, the enrichment runs as follows: under setting [1], 2.4; under setting [3], 1.59; under setting [2], 2.94.

As for N457L, under setting [1], the enrichment was found to be 3.83.

E296L: the enrichment under setting [1] was 2.9.

For M401W, the enrichment under setting [1] was found to be 2.39; the enrichment under setting [3] is 2.1 and 5.12.

For M401A, the enrichment is 2.05 under setting [1]; 3.12 under setting [2]; 3.23 and 2.41 under setting [4]; 1.56 under setting [5].

With V347E, the enrichment runs as follows: under setting [1], 2.33 and 1.87; under setting [2], 3.23; under setting [6], 2.41.

For D430L, the enrichment was 1.61 under setting [1] and 3.75 under setting [2].

D430K: the enrichment under setting [1] was determined as 3.35.
